Experimental findings from patent publication US20240067748A1 (NONA BIOSCIENCES SUZHOU, published 2024) are described below.

For test [1], the target named is T1, human Trop2 on cells (human, UniProt P09758 27-323).
T1 construct: whole, on cells; also called hTrop2; 293T-human Trop2 cells
T1 sequence (looked up): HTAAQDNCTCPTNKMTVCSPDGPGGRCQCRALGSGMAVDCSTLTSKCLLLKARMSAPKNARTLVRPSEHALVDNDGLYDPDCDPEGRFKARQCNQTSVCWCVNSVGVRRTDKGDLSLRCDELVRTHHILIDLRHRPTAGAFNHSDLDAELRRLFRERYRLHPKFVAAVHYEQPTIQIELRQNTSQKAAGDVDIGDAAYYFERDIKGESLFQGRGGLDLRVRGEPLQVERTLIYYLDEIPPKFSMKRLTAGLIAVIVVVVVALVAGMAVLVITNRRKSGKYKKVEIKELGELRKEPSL
Description: flow cytometry on 293T-human Trop2 cells. The method, boiled down: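 Cells at 1×10⁶/mL in PBS were incubated for 1 h, washed in PBS+0.5% BSA, then stained with Alexa Fluor 488 anti-human IgG for 1 h at 4 °C. Cell-bound fluorescence was measured by flow cytometry, with all steps on ice.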
In general terms: A flow cytometer gives signals particle by particle.

Test [2] concerns the target T2, monkey Trop2 on CHO-K1 cells (monkey, UniProt A0A2K5UE71 27-323).
T2 construct: also called CHO-K1/monkey Trop2
T2 sequence: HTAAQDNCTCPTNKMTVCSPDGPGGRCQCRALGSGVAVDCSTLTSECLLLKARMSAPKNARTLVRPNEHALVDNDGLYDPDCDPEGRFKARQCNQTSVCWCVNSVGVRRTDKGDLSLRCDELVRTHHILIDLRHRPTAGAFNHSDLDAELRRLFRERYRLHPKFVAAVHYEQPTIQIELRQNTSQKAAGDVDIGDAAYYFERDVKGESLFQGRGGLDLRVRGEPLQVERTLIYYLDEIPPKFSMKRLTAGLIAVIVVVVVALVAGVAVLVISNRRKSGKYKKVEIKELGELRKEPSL
Description: flow cytometry on CHO-K1/monkey Trop2 cells. On the procedure:
CHO-K1/monkey Trop2 cells (Chempartner, Shanghai, China) and CHO-K1 blast cells were each digested with 3 mL of TrypLE, and the digestion was stopped with 7 mL of the corresponding medium. […] The cell solution was centrifuged, and the cells were washed once with PBS+0.5% BSA. […] The cells were washed once with PBS+0.5% BSA. The cells were incubated at 4° C. for 1 h in the dark with 100 μL of Alexa Fluor 488 goat anti-human IgG (Life technologies, #A-11013) diluted at 1:1000, and washed twice with PBS+0.5% BSA. The cells were resuspended in 200 μL of PBS+0.5% BSA. The suspension was centrifuged at 4° C. for 5 min at 2000 rpm and tested using a FACS verse flow cytometer or NovoCyte flow cytometer (ACEA Biosciences). All procedures were performed on ice.

The target of test [3] is T3, monkey Trop2 protein (Sino Biological, #90893-C08H) (monkey, UniProt A0A2K5UE71 27-274).
T3 construct: bought protein; also called monkey Trop2 protein antigen (His tag)
T3 sequence: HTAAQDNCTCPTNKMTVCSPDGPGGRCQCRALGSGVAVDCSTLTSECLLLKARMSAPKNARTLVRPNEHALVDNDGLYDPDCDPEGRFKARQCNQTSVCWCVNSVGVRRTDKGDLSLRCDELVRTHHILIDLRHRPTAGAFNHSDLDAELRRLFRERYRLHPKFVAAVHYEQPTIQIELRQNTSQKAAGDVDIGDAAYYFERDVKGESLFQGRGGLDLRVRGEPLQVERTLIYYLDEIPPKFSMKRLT
Description: BLI, Octet RED96; ratio against KD for human Trop2 protein. The method, boiled down:
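First, 200 nM human or monkey Trop2 in PBS (pH 7.4, 0.1% BSA, 0.02% Tween 20) is captured on the sensor. Next, 40 nM antibody binds for 3 min at 30° C.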
On the technique in general: BLI is a label-free optical method that tracks binding on a fibre tip over time.

B1: PR001128 (antibody, human IgG1, kappa, V domains shown)
VH: QVQLQESGPGLVKPSGTLSLTCAVSGGSISSSNWWSWVRQPPGKGLEWIGEIFHSGTTYYNPSLKSRVTILVDKSKNQFSLKLSSVTAADTAVYYCARDNTKSWDHFDHWGQGTLVTVSS
VL: EIVLTQSPATLSLSPGERATLSCRASQSVGSYLAWYQQKPGQAPSLLIYDASNRATGIPARFSGSGSGTDFTLTISSLEPEDFAVYYCQQRTNWYTFGQGTKLEIKR
notes: fully human IgG1/kappa; also called antibody No. (1)
In the case of B1, in test [1], the midpoint of the response, the EC50, lay at 0.466 nM; the “Maximum (MFI)” value is 6850 MFI; the Top % stood at 106%. In test [2], the EC50 was determined as 2.57 nM and the “Maximum MFI value” was determined as 53200 MFI.

B2: PR001133 (antibody, human IgG1, kappa, V domains shown)
VH: QVNLVESGGGVVQPGRSLKLSCAASGFTFSSYGMHWVRQAPGKGLEWVALIWSDGTNRYYTESVKGRFTISRDNSKNTLSLQMKSLRAEDTAVYYCAKDGWGTYGEYFQHWGQGTLVTVSS
VL: DIQMTQSPSSLSASVGDRVTITCRASQNINSYLHWYQQKPGKAPKLLIYAASSLQSGVPSRFSGSGSGTDFTLTISSLQPEDFAIYYCQQSYSIPPITFGQGTRLEIKR
notes: fully human IgG1/kappa; also called antibody No. (5)
Regarding B2, in test [1], the response was half-maximal at 0.995 nM (EC50), the “Maximum (MFI)” value is 7200 MFI and the Top % is 111%. Further, in test [2], a half-maximal effect (EC50) was put at 2.87 nM and the “Maximum MFI value” turned out to be 55300 MFI. For the same molecule, the “KD (monkey)/KD (human)” value in test [3] was found to be 2.27.

B3: PR001162 (antibody, human IgG1, kappa, V domains shown)
VH: QVQLVESGGGVVQPGTSLRLSCVASGFTFSNDGMHWVRQAPGMGLEWVAIMWFDGGSKYYADSVKGRFTISRDNSKNTLYLQMNNLRAEDTAVYYCARDHPHYLGSGSFDYWGQGTLVTVSS
VL: EIVLTQSPATLSLSPGERATLSCRASQSVSSYLAWYQQKPGQAPRLLIYDASNRATGIPARFSGSGSGTDFTLTISSLQAEDVAVYYCQQYYSTPYTFGQGTKLEIKR
notes: fully human IgG1/kappa; also called antibody No. (23)
Turning to B3, in test [1], the EC50 stood at 0.158 nM, the “Maximum (MFI)” value was found to be 5850 MFI, the Top % worked out at 90.2% and the “fold lower EC50 than the reference antibody hRS7” value is about 3 fold. In addition, in test [2], the midpoint of the response, the EC50, lay at 2.25 nM and the “Maximum MFI value” stood at 45500 MFI. Further, the “KD (monkey)/KD (human)” value in test [3] came to 2.16.

B4: PR001130 (antibody, human IgG1, kappa, V domains shown)
VH: QVQLQESGPGLVKPSGTLSLTCAVSGDSISSHNWWSWVRQPPGKGLEWIGEIYHSGITSYNPSLKSRVTISVDKSKNQFSLKLNSVTAADTAMYYCARGSGVISYFDYWGQGTLVTVSS
VL: DIQMTQSPSTLSASVGDRVTITCRASQSIGNWLAWYQQKPGKAPKLLIYKASSLESGVPSRFSGSGSGTEFTLTISSLQPDDFATYYCQQYDSYSPITFGQGTRLEIKR
notes: fully human IgG1/kappa; also called antibody No. (2)
Take B4: in test [1], the concentration giving a half-maximal response (EC50) turned out to be 2.06 nM, the “Maximum (MFI)” value came out at 6820 MFI and the Top % worked out at 105%. In test [2], the midpoint of the response, the EC50, lay at 6.26 nM and the “Maximum MFI value” was determined as 61700 MFI.

B5: PR001139 (antibody, human IgG1, kappa, V domains shown)
VH: QVQLVESGGGVVQPGRSLRLSCAASGFTFSSFGMQWVRQGPGKGLEWVAVMWFDGSNKYYVDSVKGRFTISRDNSKNTLYLQMNSLRAEDTAVYYCARLDFSGWPLIDYWGQGTLVTVSS
VL: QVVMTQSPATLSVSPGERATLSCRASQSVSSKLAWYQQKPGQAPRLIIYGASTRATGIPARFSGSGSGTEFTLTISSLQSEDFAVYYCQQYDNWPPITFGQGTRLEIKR
notes: fully human IgG1/kappa; also called antibody No. (8)
In the case of B5, in test [1], the EC50 was found to be 0.325 nM, the “Maximum (MFI)” value was 6850 MFI and the Top % came to 106%. Further, in test [2], the response was half-maximal at 3.33 nM (EC50) and the “Maximum MFI value” was 46400 MFI. In test [3], the “KD (monkey)/KD (human)” value was determined as 1.62.

One may read the EC50 as the concentration needed to bring the measured effect to its halfway point.
